According to PMC13598245 (2026):
Read-outs that look alike come from different tables or passages of the source. Square brackets hold non-standard residues; d marks the D form. Ends that are not written are not given here. * marks the point of attachment. FITC = O=C1OC2(c3ccc(O)cc3Oc3cc(O)ccc32)c2ccc(NC(=S)*)cc21; pS = N[C@@H](COP(=O)(O)O)C(=O)O

T1: 14-3-3θ (purified, recombinant) (UniProt P27348 1-245)
T1 chain: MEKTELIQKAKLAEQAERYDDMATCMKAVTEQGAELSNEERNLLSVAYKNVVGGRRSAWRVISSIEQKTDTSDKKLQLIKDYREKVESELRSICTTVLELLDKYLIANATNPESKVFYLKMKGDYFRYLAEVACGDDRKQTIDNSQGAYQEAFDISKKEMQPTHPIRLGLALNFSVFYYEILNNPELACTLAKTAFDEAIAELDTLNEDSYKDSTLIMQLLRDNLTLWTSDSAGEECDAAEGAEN

T2: 14-3-3η (purified, recombinant) (UniProt Q04917 1-246)
T2 chain: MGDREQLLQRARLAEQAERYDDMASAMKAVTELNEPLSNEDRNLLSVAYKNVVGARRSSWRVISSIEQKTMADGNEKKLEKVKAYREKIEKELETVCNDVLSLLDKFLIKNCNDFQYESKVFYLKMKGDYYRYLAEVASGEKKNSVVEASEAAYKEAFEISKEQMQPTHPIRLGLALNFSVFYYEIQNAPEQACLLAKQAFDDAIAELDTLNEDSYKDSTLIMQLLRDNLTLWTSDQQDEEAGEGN

B1: MAST1^156-168 p-S161 (peptide)
peptide: {FITC}-RPRSR[pS]LSPGRSP
B2: MAST1^85-97 p-S90 (peptide)
peptide: {FITC}-DGRRW[pS]LASLPSS
B3: Tau^209-221 p-S214 (peptide)
peptide: {FITC}-RSRTP[pS]LPTPPTR

Assays:
Assay in all cases: FP
[1] = target: T1, 14-3-3θ (purified, recombinant)
[2] = target: T2, 14-3-3η (purified, recombinant)
[3] = target: T1, 14-3-3θ (purified, recombinant)
[4] = target: T2, 14-3-3η (purified, recombinant)

Row | Binder | Kd [1] | Kd [2] | Kd [3] | Kd [4]
1 | B1 | 10.7 µM | 3.6 µM |  | 
2 | B2 | 23.7 µM | 12.3 µM |  | 
3 | B3 |  |  | 90.9 µM | 21 µM
